Data from patent US20250136699A1 (JIANGSU BIOJETAY BIOTECHNOLOGY, published 2025).
Like-named read-outs stand apart in the source and are kept apart here.

T1: musculus FcRn-alpha (mouse, UniProt Q61559 22-297, limits assumed)
T1 construct: Alpha chain alone; also called mFcRn; mouse FcRn; not shown: His tag and Avi tag
T1 sequence: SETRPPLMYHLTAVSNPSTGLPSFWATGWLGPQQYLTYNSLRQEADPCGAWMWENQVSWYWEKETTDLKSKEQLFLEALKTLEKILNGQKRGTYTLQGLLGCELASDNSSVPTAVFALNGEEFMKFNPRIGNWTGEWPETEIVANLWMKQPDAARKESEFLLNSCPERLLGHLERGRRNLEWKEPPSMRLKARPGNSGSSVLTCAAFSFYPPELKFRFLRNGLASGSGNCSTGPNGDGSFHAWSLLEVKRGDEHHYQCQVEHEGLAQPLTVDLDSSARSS

T2: Rattus norvegicus FcRn-alpha (rat, UniProt P13599 23-298)
T2 construct: Alpha chain alone; also called rFcRn; rat FcRn; not shown: His tag and Avi tag
T2 sequence: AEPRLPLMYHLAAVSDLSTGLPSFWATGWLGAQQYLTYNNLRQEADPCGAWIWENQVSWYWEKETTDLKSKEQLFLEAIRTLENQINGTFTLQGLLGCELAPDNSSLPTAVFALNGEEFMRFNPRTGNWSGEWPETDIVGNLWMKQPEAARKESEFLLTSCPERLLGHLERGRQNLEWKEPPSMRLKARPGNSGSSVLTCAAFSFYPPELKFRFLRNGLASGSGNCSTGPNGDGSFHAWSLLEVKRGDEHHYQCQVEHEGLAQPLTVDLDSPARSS


Experiments:
musculus FcRn-alpha = molecular target: T1, musculus FcRn-alpha; test: ELISA: mFcRn coated, antibody titrated, goat anti-human IgG Fab-HRP, OD450
[1] = molecular target: T2, Rattus norvegicus FcRn-alpha; test: ELISA: rFcRn coated, antibody titrated, goat anti-human IgG Fab-HRP, OD450
Procedure: (§1) hFcRn binding of purified full-length chimeric antibodies: The hFcRn antigen binding ELISA was performed on the purified full-length chimeric antibodies (reformatted as IgG4). Briefly, plates were coated overnight at 4° C. with 1 μg/mL of hFcRn (cat #CT009-H08H) in PBS. After removing the coating solution, the wells were blocked by adding blocking buffer and incubated at room temperature for 1 hour. Plates were then washed 6 times with wash buffer. Serial dilutions of purified antibodies in PBS were added to individual wells followed by incubation at room temperature for 1 hour. Plates were washed 6 times with wash buffer. […] Plates were incubated at 37° C. for 1 hour, washed 6 times with wash buffer, and developed for 5-10 minutes with 50 L/well of TMB substrate, then quenched with 2M H₂SO₄. […] The ELISA results (OD450) were analyzed, and the binding curves were generated by Graphpad PRISM.
(§2) Analysis of cross-reactivity to FcRn from different species: To examine whether the anti-FcRn antibodies bind to FcRn from different species, antigen binding ELISA assays were performed as described above except that cynoFcRn, mFcRn, or rFcRn was used in the assay instead of hFcRn.

[2] = molecular target: T3, human FcRn (human FCGRT and B2M) on stably transfected MDCK cells (human, UniProt P55899 24-365; P61769 21-119); test: cell-based or functional assay
T3 sequence (P55899 24-365, chain 1 of 2): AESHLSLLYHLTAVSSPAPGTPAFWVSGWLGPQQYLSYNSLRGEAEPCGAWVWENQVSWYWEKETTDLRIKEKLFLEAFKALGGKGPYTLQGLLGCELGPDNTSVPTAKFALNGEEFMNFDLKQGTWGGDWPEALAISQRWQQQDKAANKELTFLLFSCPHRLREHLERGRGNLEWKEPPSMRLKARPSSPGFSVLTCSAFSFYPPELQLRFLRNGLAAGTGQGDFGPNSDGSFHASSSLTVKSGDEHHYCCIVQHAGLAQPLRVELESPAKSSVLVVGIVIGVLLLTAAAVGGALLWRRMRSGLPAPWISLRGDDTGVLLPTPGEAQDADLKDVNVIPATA
T3 sequence (P61769 21-119, chain 2 of 2): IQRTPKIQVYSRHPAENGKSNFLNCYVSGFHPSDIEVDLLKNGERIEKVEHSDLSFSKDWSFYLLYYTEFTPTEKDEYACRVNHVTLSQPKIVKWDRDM

human B2M [3] = molecular target: T4, human B2M (human, UniProt P61769 21-119, limits assumed); test: ELISA: human B2M coated, antibody titrated, OD450
T4 construct: also called beta-2-microglobulin; not shown: His tag and Avi tag
T4 sequence (P61769 21-119 limits assumed): as the sequence (P61769 21-119, chain 2 of 2) above

human FCGRT [4] = molecular target: T5, human FCGRT (human, UniProt P55899 24-297, biotinylated (Avi tag) in the blocking assays); test: blocking ELISA: human IgG coated, biotinylated human FCGRT plus titrated antibody, SA-HRP, OD450; blocked ligand: human IgG
T5 construct: Alpha chain alone, expressed in Expi293 cells with His and Avi tags; also called FCGRT of human FcRn protein; biotinylated human FCGRT; not shown: His tag and Avi tag
T5 sequence (P55899 24-297 limits assumed): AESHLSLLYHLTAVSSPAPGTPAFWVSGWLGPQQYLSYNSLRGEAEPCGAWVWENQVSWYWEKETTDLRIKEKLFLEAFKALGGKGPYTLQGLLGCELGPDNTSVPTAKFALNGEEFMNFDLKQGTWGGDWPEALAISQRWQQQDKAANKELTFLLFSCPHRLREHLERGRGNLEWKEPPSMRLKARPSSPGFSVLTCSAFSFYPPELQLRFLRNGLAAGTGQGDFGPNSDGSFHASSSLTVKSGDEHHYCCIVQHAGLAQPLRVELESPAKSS

[5] = molecular target: T6, Cynomolgus monkey FcRn-alpha (cynomolgus monkey, UniProt Q8SPV9 24-297, limits assumed); test: ELISA: cynoFcRn coated, antibody titrated, goat anti-human IgG Fab-HRP, OD450
T6 construct: The printed entry looks like the full-length precursor (signal peptide, transmembrane and cytoplasmic parts); also called cynoFcRn; not shown: His tag and Avi tag
T6 sequence (Q8SPV9 24-297 limits assumed): as the sequence (P55899 24-297 limits assumed) above, with N39D, E44Q, G99S, S189G, S190N, L217M, S269T counted along it

human FCGRT [6] = molecular target: T5, human FCGRT; test: ELISA: human FCGRT coated, antibody titrated, goat anti-human IgG Fab-HRP, OD450
Procedure: (§3) Measurement of the binding specificity of anti-FcRn antibodies to FCGRT and B2M by EILSA: Briefly, human FCGRT or B2M was coated on a 96-well plate at 4° C. overnight, after removing the coating solution, a blocking buffer containing 1% BSA was added into the plates followed by incubation at room temperature for 1 hour to block unspecific binding. Plates were then washed with wash buffer, and serial dilutions of anti-FcRn antibodies were added to the wells and incubated at room temperature for 1 hour. […] The wells were washed before adding 100 μL/well of TMB and incubated for 5-10 minutes at 37° C. 2M H₂SO₄ was used to stop the reaction. […] The ELISA results (OD450) were analyzed, and the binding curves were generated by Graphpad PRISM.

[7] = molecular target: T7, Human recombinant FCGRT & B2M Heterodimer Protein (hFcRn) (human, UniProt P55899 24-297; P61769 21-119); test: ELISA, hFcRn coated at 1 ug/mL, IgG4 antibody titrated, anti-human IgG Fab-HRP
T7 construct: Bought protein; also called human FcRn
T7 sequence (P55899 24-297 limits assumed, chain 1 of 2): as the sequence (P55899 24-297 limits assumed) above
T7 sequence (P61769 21-119 limits assumed, chain 2 of 2): as the sequence (P61769 21-119, chain 2 of 2) above
Procedure: as §1

human FCGRT [8] = molecular target: T5, human FCGRT; test: competition ELISA: human IgG coated, biotinylated human FCGRT plus antibody, SA-HRP
Procedure: (§4) After removing the coating solution, the wells were blocked with a blocking buffer containing 1% BSA at room temperature for 1 hour. Plates were then washed with wash buffer. […] After incubation, 100 μL of SA-HRP (1:20,000) was added to each well and incubated for 1 hour at 37° C. The wells were washed before adding 100 μL/well of TMB and incubated for 5-10 minutes at 37° C. 2M H₂SO₄ was used to stop the reaction. […] The ELISA results (OD450) were analyzed, and the binding curves were generated by PRISM.

human B2M [9] = molecular target: T4, human B2M; test: ELISA: human B2M coated, antibody titrated, OD450; remark: listed apart in the source
Procedure: as §3

[10] = molecular target: T6, Cynomolgus monkey FcRn-alpha; test: ELISA on coated cynoFcRn, IgG4 antibody titrated
Procedure: as §1, §2

human FCGRT [11] = molecular target: T5, human FCGRT; test: ELISA on coated human FCGRT, IgG4 antibody titrated
Procedure: as §3

[12] = molecular target: T7, Human recombinant FCGRT & B2M …; test: ELISA on coated hFcRn, IgG4 antibody titrated
Procedure: as §1

[13] = molecular target: T3, human FcRn (human FCGRT and B2M) on …; test: cell-based or functional assay; remark: listed apart in the source
human FCGRT [14] = molecular target: T5, human FCGRT; test: competition ELISA: human IgG coated, biotinylated human FCGRT plus antibody, SA-HRP; remark: listed apart in the source
Procedure: as §4

human FCGRT [15] = molecular target: T5, human FCGRT; test: ELISA: human FCGRT coated, antibody titrated, goat anti-human IgG Fab-HRP, OD450; remark: listed apart in the source
Procedure: as §3

Molecule	EC50 (read off the curve) (musculus FcRn-alpha) [nM]	binding result [1]	IgG Recycle IC50 [2] [nM]	binding result (human B2M [3])	EC50 (read off the curve) [5] [nM]	EC50 (read off the curve) (human FCGRT [6]) [nM]	EC50 [7] [nM]	IC50 (human FCGRT [14]) [nM]	EC50 (read off the curve) (human FCGRT [15]) [nM]	other results
Human IgG (Jackson ImmunoResearch, cat #009-000-003) (antibody)	30									
ZLP22 (antibody, V domains shown, Full-length chimeric antibody; human kappa or lambda light constant domain) VH: EVKLVESGAELARPGASVKMSCKASGYTFTSYAMHWVKQRPGQGLEWIGYINPSSGYTNYNQKFKDKATLTADKSSSTAYMQLSSLTSEDSAVYYCARKGLRYAVDYWGQGTSVTVSS VL: DIVMTQSPSSLSVSAGEKVTMSCKSSQSLLNSGNQKNYLAWYQQKPGQPPKLLIYGASTRESGVPDRFTGSGSGTDYTLTISSVQAEDLALYYCQQHYSTPYTFGGGTKLEIK	~20	no binding (tested: about 700 nM (Log[Ab] about 2.8))	5.01	no binding (tested: about 700 nM (Log[Ab] about 2.8))	~0.8	~7	2.39			IC50 (read off the curve) (human FCGRT [4]): ~30 nM
ZLP1-3-2 (antibody, V domains shown, also called humanized version of ZLP193) VH: QVQLQESGPGLVKPSETLSLTCAVSGYSFTSGYSWHWIRQPPGKGLEWIGYIHDSGGTNYNPSLKSRVTISRDTSKNQFSLKLSSVTAADTAVYYCAREENYRYFDVWGQGTLVTVSS VL: EIVLTQSPATLSLSPGERATLSCSASSSVSYMHWFQQKPGQSPRLWIYSTSNLASGIPARFSGSGSGTDYTLTISSLEPEDFAVYYCQQRSSYPPTFGQGTKVEIK										IC50 (human FCGRT [8]): 6.16 nM; binding result (human B2M [9]): no binding (tested: about 700 nM (Log[Ab] about 2.8)); EC50 [10]: 3.12 nM; EC50 (human FCGRT [11]): 1.5 nM; EC50 [12]: 2.95 nM; IgG Recycle IC50 [13]: 4.04 nM
ZLP17 (antibody, V domains shown, Full-length chimeric antibody with human IgG1 or IgG4 heavy constant and human kappa or lambda light constant domain) VH: QIQLLQSGAELARPGASVKMSCKASGYTFTSYTMHWVKQRPGQGLEWIGYINPSSGYTNYNQKFKDKATLTADKSSSTAYMQLSSLTSEGSAVYYCARSGLRRVLDYWGQGTSVTVSS VL: ENVLTQSPAILSASPGEKVTMTCSASSSVSYMYWYQQKPGSSPRLLIYDTSNLASGVPVRFSGSGSGTSYSLTISRMEAEDAATYYCQQWSSYPRTFGGGTKLEIK	~30		3.24	no binding (tested: about 700 nM (Log[Ab] about 2.8))	~7	~20				IC50 (read off the curve) (human FCGRT [4]): ~20 nM
ZLP193 (antibody, V domains shown, Full-length chimeric antibody: mouse variable domains with human IgG1 or IgG4 heavy constant domain and human kappa or lambda light constant domain; also called chimeric anti-FcRn antibody ZLP193) VH: EVQLQESGPDLVKPSQSLSLTCTVTGYSFTSGYSWHWIRQFPGNRLEWMGYIHDSGGTNYNPSLKSRISITRDTSKNQFFLQLNSVTTEDTATYYCAREENYRYFDVWGAGTTVTVSS VL: DIQMMQSPAIMSASPGEKVTITCSASSSVSYMHWFQQKPGTSPKLWIYSTSNLASGVPARFSGSGSGTSYSLTISRMEAEDAATYYCQQRSSYPPTFGDGTRLEIK	~9	no binding (tested: about 700 nM (Log[Ab] about 2.8))	10.1	no binding (tested: about 700 nM (Log[Ab] about 2.8))	~0.3	~1	0.439	8.7		
ZLP44 (antibody, V domains shown, Full-length chimeric antibody; human kappa or lambda light constant domain) VH: EVQLQQSGPELVKPGASVKVSCKASGYIFTSYNMYWMKQSHGKSLEWIGYIDPYNGGTRYNQKFKGKATLTVDKSSSTAYMHLNSLTSEDSAVYYCAVDGYNGAMDYWGQGTSVTVSS VL: QIVLTQSPASLAVSLGQRATISCRASESVDSYGNSFMHWYQQKPGQPPKLLIYRASNLESGIPARFSGSGSRTDFTLTINPVEADDVATYYCQQSNEDPYTFGGGTKLEIK		no binding (tested: about 700 nM (Log[Ab] about 2.8))	2.5	no binding (tested: about 700 nM (Log[Ab] about 2.8))	~0.1		0.673	12.3	~0.1	
ZLP64 (antibody, V domains shown, Full-length chimeric antibody; human kappa or lambda light constant domain) VH: QIQLLQSGPELVKPGASVKVSCKASGYIFTSYNMYWMKQSHGKSLEWIGYIDPYNGGTNYNQKFKGKATLTVDKSSSTAYMHLNSLTSEDSAVYYCAVDGYNGAMDYWGQGTSVTVSS VL: DIVLTQSPASLTVSLGQRATISCRASESVDRYGNSFMHWYQQKPGQPPKLLIYRASNLESGVPARFSGSGSRTDFTLTINPVEADDVASYYCQQSNEDPLTFGAGTKLELK		no binding (tested: about 700 nM (Log[Ab] about 2.8))	10.7	no binding (tested: about 700 nM (Log[Ab] about 2.8))	~0.08		0.212	12.5	~0.3	
ZLP198 (antibody, V domains shown, Full-length chimeric antibody with human IgG1 or IgG4 heavy constant and human kappa or lambda light constant domain) VH: EVKLMESGPDLVKPSQSLSLTCTVTGYSITSGYSWHWIRHFPGKKLEWMGYIHNSGSTNYNPSLKSRISISRETSKNQFFLQLNSVTTEDTATYYCAREGYGGYWYFDVWGAGTSVTVSS VL: DIVLTQSPAIMSASPGEKVTMTCSASSSVSYMYWYQQKPGSSPKPWIYGTSNLASGVPVRFSGSGSGTSYSLTISRMEAEDAATYYCQQRSSYPYTFGGGTKLEIK	~10			no binding (tested: about 700 nM (Log[Ab] about 2.8))	~6	~20				
ZLP42 (antibody, V domains shown, Full-length chimeric antibody) VH: QVQLQQPGAELVKPGASVKLSCTASGFNIKDTYMYWVKQRPEQGLEWIGRIDPANGITKFDPKFQDKATVTADTFSNIAYLHLSSLTSEDTAVYYCTTTAVMATEAMDRWGQGTSVTVSS VL: QIVLTQSPASLAVSLGQRATISCRASESVDSYGNSFMHWYQQKPGQPPKLLIYRASNLESGIPARFSGSGSRTDFTLTINPVEADDVATYYCQQSNEDPYTFGGGTKLEIK		no binding (tested: about 700 nM (Log[Ab] about 2.8))		no binding (tested: about 700 nM (Log[Ab] about 2.8))			0.981	10.9	~0.2	
ZLP57 (antibody, V domains shown, Full-length chimeric antibody with human IgG1 or IgG4 heavy constant and human kappa or lambda light constant domain) VH: QVQLKESGPDLVKPSQSLSLTCTVTGYSITSGYSWHWIRQFPGNKLEWMTYIHSSGSTNYNPSLKSRISITRDTSKNQFFLQLKSVTTEDTATYYCAREVYGNYYWYFDVWGAGTTVTVSS VL: DIVMTQSPAIMSASLGEEITLTCSASSSVSYMHWYQQKSGTSPKLLIYSTSNLASGVPARFSGSGSGTSYSLTISRMEAEDAATYYCQQRSSYPYTFGGGTKLEIK				no binding (tested: about 700 nM (Log[Ab] about 2.8))				8.88		
